The nature of the series: protease stability score; higher = more stable; yeast display proteolysis, trypsin and chymotrypsin.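 Note: log10 excess protease needed over predicted unfolded state with 0 meaning unfolded.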

Here are results for 47 sequences from the NTF2 design screens of Basanta et al. (2020).

Regarding “DEVTRAEELLHEIQEAFRTGDEDQARRLADENVQIHVGDKFVRGRRDYVKRLKDEVDRVDHMEVHIKSVDVHGDKATMDYRVRVQFDGQSKERDVVMYAKISNGQLKVTSLTEK”, the protease stability score came out at 0.012.

In the case of “DHDAAHQFKKMLDALRTNDEEHARRMADPNAKFQIGDKTYKGMDTFIRQLVREAREIKIHIDDIKVHDKGDKAVLNVNVKFSKNGEPDSRVLNFEFRAHNGHLKEIVVRDDK”, the protease stability score worked out at 0.757.

Consider “DHDAKKRIHQLWHALQTGNPDEVVKQVDKDVKVRVGEKDIHGRDQVREDVEREQKDMRVEYKSIRVEMNGDKARVEVHYQHERDGQPRTHRADYEIKWQNGKVKEMRASQKP”, for which the protease stability score was -0.244.

“DHDALERFQEFLENLKSGNPHDLHNMLDKNASLQVGDKTVTGRDQIVDHWRRQREEWEVTYRSVDLKVSGDTVKADFDFQVDINGQPNRVSRQAHVKISNGKLKTLQYRVSEDVKRNIEG”: the protease stability score was -0.254.

In the case of “DHDALKRASQFLKAMEQGNEREAVRLVDENARVRYGDKQIHGNKQIRDWVRKMHEQARIRIEVTRVQATGDTVTVTAKVDVDVNGKPQTHDMVFRARVHNGHIKSAEFHFDEEFEKRMNS”, the protease stability score came out at 1.32.

In turn, “DHDALRHATEILRARKTGDDKRIRELVDPNAHVVIGDKSLHGREQIVKFVTKENEEMSIQYRHVSTETRNGRVDIRMDADMRKNGTPDRVRQEMKAEFHNGRLQRMSVHDDK” returned a protease stability score of -0.331.

As for “DHDAVRQARELYKVWQTGDPDKVRNMLDPNVRFRIGDKEIRGRESFAEELITQIKQSHVEVRHYSANANGNNVKARANVVIHVNGRPHEFSFIFRARVENGKFKQISVQVDDDLLRKLES”, the protease stability score was determined as 0.548.

“DHDIRELFKRLVDAISTNDPQTMNNNMDKDVEARVGDQDYKGRENMAHELVKTREKIRLEMHLNSLNNEGDYVRVEVEQVLEDNGQPDRSVMDAEWRADNGRVQEYHVDEKP” gave a protease stability score of -0.146.

Consider “DHDKQEFWNHLVEIFKSGNEDDWRKNFDPNAKWHIGDKRVHGREEAVEDFRRRREELRQNIESFTVDARGDKVTVHQVFVVEINGHPRRMSVNIRAKVHNGQIKEMDVRLSDEDKKKEKG”, for which the protease stability score was 0.478.

The sequence “DHDLLTKIKTILELIKTGNFEEVRKNFDPNVDVHVGDKTIHGRERWAKELDKEVRELRWDIKIKRVKDRGDRAHFDMEATFEVNGRPANFRANMVVHMHNGRVKHMNIKIPEEDLKRQKS” gave a protease stability score of 0.823.

With “DHDLNQQAQQWVRNFNNGDEDKLQDYADPNVRFQIGDEQVHGREEYKSRVKKKRKHARFRIRVREIDAQGEHVHVKADIIQNINGRPMDDHVIFHFEVRNGKLKSLKLRVDPEKQRELEK”, the protease stability score was determined as 0.417.

Consider “DHDLQKTWKDQAAEALQTGDPREFEKMVDENVNVIYGDKTYHGRKQASNLAQRLQKQIDHIRLHSVSIRGDEVNVDLTVNVNGTEMRYHMTARVHNGKVKELKFDPDFVRKAQK”, for which the protease stability score came out at 0.174.

“DHDLVKHLESFIKNLQDGDDDKLAKYADPNAHIEVGDKVVSGRKQLQEEVRRQRKRMRISLDVKDVKAHNGQADVTFDQRVEVNGRPWQNRYTVIFFLHNGTLREARFDIPEREQRKLES” returned a protease stability score of 0.189.

The sequence “DHDQRRQAKEMVHAMTKGDEDRLRELLDENAKADVGDSKVHGRTQFLRELRTTMEQSQLRLDSFDVKVKDGRVRMRFSFVEDHNGRPNHKNAELQLRLDNGKVQEVRQRDDG” registered a protease stability score of 0.539.

“DHEAEKRIKKWVDAIHTGDEEQLKRLADPNVKVNVGNYSVRGRENLADMVSRMRDEIRLTYRDVKMDVTGDHARMDADVERDHNGRPERFELKANFRWRNGKITEIDAHWHQ” displayed a protease stability score of 1.42.

“DHEAEKRWTKLQEAIKYNNPQEAKHQMDPNARVRVGDKEFHGMDDFAKYQLDHQRKIEVDRKVKKVDVKNGSVKVVQDVENNNNGTPSRHVMDLRVEVHNGHIRNVRAETDK” returned a protease stability score of -0.295.

The sequence “DHEAKDVFEELLRRMKSGDEDEMKKLVDKNVRYTVGDKTLHGQEEIARHWYEQVKDMRIDIKVKDIKVHNGRVDVKFTFRHEHNGNPDSDKRRVNVEARNGKMQAVDDQKDS” showed a protease stability score of 0.148.

“DHEAKEIAEKIQRALTSNDPDHLNRQLDPNVRLQIGDKEVEGRQEAHNWLQKVVDEQEISINISDINVNGNHIRIHAVVENQVNGRPFHYEVVIIIIIHNGRVRSQRYQLDEDQDRRIKQ” returned a protease stability score of 0.047.

In the case of “DHEALKVLHKFMEALNTGDPDQLNKNIDPNARFVVGDKTINGREQFREDQRRLKEQIRVYATIRTIRVEGDHANLTVEYEQDHNGKPDSNEVTVTAKLKNGKIQEVREDRKQ”, the protease stability score is -0.18.

Regarding “DHEANQIAREFVKAIRTNNPTRASQNMDPNVRVTVGDHVFHGREEVKTWIHRLNKEARIDIHINTIESQGDNAKVVFKYRVEVDGRPDSRNVIVDVHAHNGKMKEVVYRVDEDEQHELKK”, the protease stability score was determined as 0.368.

Sequence “DHEAQENAKHFIDALHTNDPRQVVEMIDPNARVNVGDKQLRGDSQVRKWWRRQNEEIRMHVKVDDIKVKGNNAVAKFKMEITHDGTPNDNHAEMTVTFHNGRATDLKVDEDK” displayed a protease stability score of 0.017.

In turn, “DHEAQKALRDVIEAIRENNPDEVKKQLDKNATVRVGDKRLHGTEEQRREVQKKLDEIRIRYQDIKMETSGDTVRASIQFVENHNGEPQRDRVTASMSADNGRVKHFVVTETQ” showed a protease stability score of -0.041.

“DHEAREIVEEYLKAIERNNPKKAQELVDPNVHFHYGDKRLDGREDLNEKIHRETKHQRVDIKSVSIDVQGDKVDVKVDVVDVHNGQPERYTFEVTYTFKNGQIQNADQKESG” gave a protease stability score of 1.02.

For the sequence “DHEARKLMKRFFSAINHGDPDQIRKNVDKDVKAQVGDKTVHGREEWVKWMTRRLDEIKMHYDVTTIDVQGDKVHAQAKVRYDVDGRPITDQVTFTARIENGKITSLSLRMDPENQQKIEK”, the protease stability score was found to be 1.15.

Sequence “DHEARKVVKRFWEAWETGDPEELNKQVDPNVHVQIGDTRLKGRDDVVRHLLEERHEMRVDLDSMDVKATNGQVNARATARADVNGQPVTFSMEFRFKVRNGKITHIDWQFSDEDHRKRKG” yielded a protease stability score of 0.81.

Sequence “DHEAVKLMERLIEALNTGDPDQLRRLADKDVRWRYGDKDVHGRESVVTQLKKRLEQSRFKVTDVDIKAQGDNVTADYRVIFEHNGKPDDVTVKVEAKVHNGRIKMMKIQTDK” yielded a protease stability score of 0.623.

As to “DHEDAEKMKDLLTAEQQNDPDKVKEQADPNAQFRIGDQKVHGRNQYARIVKTLMERADVHILRIDNKDHNGQVHVSIDRVIDYNGRPKRDTETATARFHNGRLKELHIQFDPKKYQELKK”, the protease stability score was 0.027.

Regarding “DHEDKERASQAIEAWNTGDPREFEKQFDPNARVHVGDRHIHGREQFEDEMKRHKDESRYEISLRNVTVDNGRIKLDVVLSVDENGRPETQHLKIDLELHNGRVVSMQFNHKK”, the protease stability score is -0.209.

In turn, “DHEDLVKRFIETMKEIYHTGNFRELANLADEDVQIHVGDKTVTGREHLRKEQETTERHADHATMRVDEVEVDGDKARVVFTVTIQVNGEKRSDRLVVEFRVHNGQLRIKSMRQQ” displayed a protease stability score of 1.05.

Regarding “DHEDMEKLAKDLNKAIEQGDPDRMRDMADENVDAKIGDKVFHGDENVRKMIKSIRDHADHLRVKDWRVKGEKIVIDVHVNHNGKSAKLDLKAQAHNGTFTTLKIDPQFQRSMES”, the protease stability score was -0.234.

The sequence “DHEDRAKDMLRRYEEALKSGNPDEARKLADEDVNFNIGDKRYRGRDDLATLVKQIRDSADHISITLETFTVQGNTITMDVSVVVDVNGKHISRRYNIIAQVDNGTLKLKSVQEH” displayed a protease stability score of -0.015.

With “DHEDRELAKEWEKALHSGDRDQVHELMDPNASVRIGDKVFTGREEVSKHLKKIKDEMRIHIHSVHLEVQNGEVDNKNDLVADVNGVPVRVTVVVRITAQNGKMKELDMRFDPRQKEQMDR”, the protease stability score came out at 0.093.

For the sequence “DHEEKAKKFFDDLLRAVKHNDETQLERLFDKNVRFNVGEHNFRGREEFVKMVRTMVEQVDHVTATIVSIETNGDKVNLVAQWDMSHNGNSKRIRVLVVLDDNNGRVVAREMSEK”, the protease stability score amounted to 2.2.

With “DHEELEVVKEWFDAIQKGDPKTIQELADKDAEFQIGDKTVRGREHLVETVERRKKHMEFQIRIDRMDVHGDKAVIDVTMSNKHNGQPSQDRYNVRVELHNGKIQNVDQSKRS”, the protease stability score was -0.033.

Take “DHEEMEKIAEEIIDILRTNDPDQMERLADENVRVRIGDKEVHGRESVSHAAQQLHDRVDHFDLKSWRRNGDKFQFEFVEHFNGQSRNVQVEMRFENGKIRHIVYTSR”: the protease stability score was found to be 0.226.

The sequence “DHEEQMEKFIKTLKKLMKNNDWETWASLADPNAEARYGDSEYHGREKIVTHMRKLQEHVDHADLKFRSVSLRNGEVTMRISFHVKVNGTDQSHEAKLVLEIDNGRAVIKKMVLD” showed a protease stability score of 0.795.

In turn, “DHEESKDIAEKAVKAIETGDPDKFVSNMDKDASARIGDKTYHGRENLRKAMEDFRNQVDHLRVQSYKVSGNTQKLDMRADFNGRTRVITVVMQMENGRVSFIRVHIE” showed a protease stability score of -0.359.

Sequence “DHEETFRKLLHDLDEAMRRGDTKRIQDLADENVQLEVGDKTIHGREEFAKFWMDLQKRVDHLELHVEHIHVSGDRIRAKIVLVFHHNGQTRTRSAQVVLVQENGRNVFTKIQFN” returned a protease stability score of 1.17.

As for “DHEEVHKLAKKLAEAVVNGNEDRIRKFLKPDVEYKNIDEEYQGKQVAEVIVKTIKTKGVRLKVEEVKVEGDTVEAQYVFQVNGTKVTAHVRAEAKGGRVDKWQVHISDTAKKLRKEG”, the protease stability score worked out at 1.15.

In turn, “DHEEVKEFNKTLIKILETNDSKKLHELMDPNARIQIGDKDVSGRHNIHKLAEENKRRVDHFRVSRIDYHNGKVRADFTYVVNGQKHRVDMDIDITNGKIKRIIYHQR” displayed a protease stability score of 0.011.

Sequence “DHEEVRQYEDAVEAEETGDKEKLQRYMDPNVKFHVGDKTLHGREDVARKQKEDRERIRIRYKSMDIKVRGDKVDFKMSFVVNHNGRPQRETRTFTIDLHNGTFKHADWKESG” gave a protease stability score of -0.014.

The sequence “DHEFAKDAKEVLEENDFEREKQLFDKDASAHIGNTTYHGHEHVQTAIDIRKKRIDHREFHSITIHGDKVDVDLIVQFNGRKIRFDLTIQVHNGRVKEIKFQATNPSQERQLDEIMS” gave a protease stability score of 1.12.

Sequence “DHEIRHFAEQVVRVLNTGDEEEIEKLFDPNARITVGDKSYHGMDDYARKVKQTRDEMRFTIDVKDLKVSGDSVSMRAHVVHDHNGTPQKDTEQREFRVQGDRVKHMDVKSDG” displayed a protease stability score of -0.395.

The sequence “DHEKNKQHVDQFNEILKNGNPDEANKLADKDVEIEVGDKRYHGHEDFRKYQEEIAEQADHVKVTEVEVDGNKANVDVVLRINGKNLRRTFLLQIHNGRLKRLSFDPDQWDKARG” gave a protease stability score of 0.91.

In the case of “DHELEELAKRFLEAVLTGDEDQLRRNMDPNVKVDVGDKTVKGREEAAREIHETVHRSRIHVNHVDFRLNNGRETMRMDVVVDHNGRPQKDTWKMNQDVQGDKVKNINFRTDG”, the protease stability score was -0.353.

“DHELENLVEKIMSALTRNNPEDIRSLFDPNARFNIGDKTWNGMDRYITELKKEVDEWDMSVELHSVDIQGNKASAHVEQTAHHDGEPDSFEYTMKLDFHNGKARRQRVNSRK”: the protease stability score is -0.248.

As for “DHELVEQLHRFWTAVDENDPDKLKENADPNAHFVIGDKTYRGREDFARTIERELDTMEMRFDTMTVTIHNGRLDAKFRYVVRHNGNPQQHKVDAKAEMSNGKIQRLNMQKRP”, the protease stability score is -0.197.
